Test results as given in patent US20230028476A1 (EVOTEC INTERNATIONAL, published 2023).
Like-named read-outs stand apart in the source and are kept apart here.

What was measured:
Assay in all cases: cell-based or functional assay
human CD40 [1] = target: T1, human CD40 (human, UniProt P25942 21-277)
[2] = target: human IFN receptor on HEK-Blue IFN-α/β cells (human)
human CD40 [3] = target: T1, human CD40; remark: listed apart in the source
[4] = target: human IFN receptor on HEK-Blue IFN-α/β cells (human); remark: listed apart in the source

T1 sequence (P25942 21-277): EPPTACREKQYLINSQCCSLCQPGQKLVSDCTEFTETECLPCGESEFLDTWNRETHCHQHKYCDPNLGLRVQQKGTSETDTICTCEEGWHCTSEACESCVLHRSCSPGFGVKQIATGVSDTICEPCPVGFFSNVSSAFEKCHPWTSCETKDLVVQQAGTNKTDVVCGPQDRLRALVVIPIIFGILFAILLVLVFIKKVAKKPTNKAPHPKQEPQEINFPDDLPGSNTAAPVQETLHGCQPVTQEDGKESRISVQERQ

Binder	CD40 EC50 (HEK-Blue CD40L reporter cells) (human CD40 [1])	IFNβ EC50 (HEK-Blue IFN-α/β reporter cells) [2]	CD40 EC50 (HEK-Blue CD40L reporter cells) (human CD40 [3])	IFNβ EC50 (HEK-Blue IFN-α/β reporter cells) [4]	IFNε EC50 (HEK-Blue IFN-α/β reporter cells) [2]
IFA12 (antibody, human IgG2, kappa) light: DIQMTQSPSSVSASVGDRVTITCRASQGIYSWLAWYQQKPGKAPNLLIYTASTLQSGVPSRFSGSGSGTDFTLTISSLQPEDFATYYCQQANIFPLTFGGGTKVEIKRTVAAPSVFIFPPSDEQLKSGTASVVCLLNNFYPREAKVQWKVDNALQSGNSQESVTEQDSKDSTYSLSSTLTLSKADYEKHKVYACEVTHQGLSSPVTKSFNRGECPAPAMSYNLLGFLQRSSNFQCQKLLWQLNGRLEYCLKDRMNFDIPEEIKQLQQFQKEDAALTIYEMLQNIFAIFRQDSSSTGWNETIVENLLANVYHQINHLKTVLEEKLEKEDFTRGKLMSSLHLKRYYGRILHYLKAKEYSHCAWTIVRVEILRNFYFINRLTGYLRN heavy: not shown	0.105 µg/mL	0.00364 µg/mL	–	–	–
IFA13 (antibody, human IgG2, kappa) light: DIQMTQSPSSVSASVGDRVTITCRASQGIYSWLAWYQQKPGKAPNLLIYTASTLQSGVPSRFSGSGSGTDFTLTISSLQPEDFATYYCQQANIFPLTFGGGTKVEIKRTVAAPSVFIFPPSDEQLKSGTASVVCLLNNFYPREAKVQWKVDNALQSGNSQESVTEQDSKDSTYSLSSTLTLSKADYEKHKVYACEVTHQGLSSPVTKSFNRGECPAPAMSYNLLGFLQRSSNFQSQKLLWQLNGRLEYCLKDRMNFDIPEEIKQLQQFQKEDAALTIYEMLQNIFAIFRQDSSSTGWNETIVENLLANVYHQINHLKTVLEEKLEKEDFTRGKLMSSLHLKRYYGRILHYLKAKEYSHCAWTIVRVEILRNFYFINRLTGYLRN heavy: not shown	0.192 µg/mL	0.0007 µg/mL	–	–	–
IFA19 (antibody, human IgG2, kappa) light: DIQMTQSPSSVSASVGDRVTITCRASQGIYSWLAWYQQKPGKAPNLLIYTASTLQSGVPSRFSGSGSGTDFTLTISSLQPEDFATYYCQQANIFPLTFGGGTKVEIKRTVAAPSVFIFPPSDEQLKSGTASVVCLLNNFYPREAKVQWKVDNALQSGNSQESVTEQDSKDSTYSLSSTLTLSKADYEKHKVYACEVTHQGLSSPVTKSFNRGECSGGTSGSTSGTGSMSYNLLGFLQRSSNFQSQKLLWQLNGRLEYCLKDRMNFDIPEEIKQLQQFQKEDAALTIYEMLQNIFAIFRQDSSSTGWNETIVENLLANVYHQINHLKTVLEEKLEKEDFTRGKLMSSLHLKRYYGRILHYLKAKEYSHCAWTIVRVEILRNFYFINRLTGYLRN heavy: not shown	0.11 µg/mL	0.0013 µg/mL	–	–	–
IFA1 (antibody, human IgG2, kappa) light: DIQMTQSPSSVSASVGDRVTITCRASQGIYSWLAWYQQKPGKAPNLLIYTASTLQSGVPSRFSGSGSGTDFTLTISSLQPEDFATYYCQQANIFPLTFGGGTKVEIKRTVAAPSVFIFPPSDEQLKSGTASVVCLLNNFYPREAKVQWKVDNALQSGNSQESVTEQDSKDSTYSLSSTLTLSKADYEKHKVYACEVTHQGLSSPVTKSFNRGECAEAAAKEAAAKAMSYNLLGFLQRSSNFQCQKLLWQLNGRLEYCLKDRMNFDIPEEIKQLQQFQKEDAALTIYEMLQNIFAIFRQDSSSTGWNETIVENLLANVYHQINHLKTVLEEKLEKEDFTRGKLMSSLHLKRYYGRILHYLKAKEYSHCAWTIVRVEILRNFYFINRLTGYLRN heavy: not shown	0.0741 µg/mL	0.00164 µg/mL	–	–	–
IFA2 (antibody, human IgG2, kappa) light: DIQMTQSPSSVSASVGDRVTITCRASQGIYSWLAWYQQKPGKAPNLLIYTASTLQSGVPSRFSGSGSGTDFTLTISSLQPEDFATYYCQQANIFPLTFGGGTKVEIKRTVAAPSVFIFPPSDEQLKSGTASVVCLLNNFYPREAKVQWKVDNALQSGNSQESVTEQDSKDSTYSLSSTLTLSKADYEKHKVYACEVTHQGLSSPVTKSFNRGECAEAAAKEAAAKAMSYNLLGFLQRSSNFQSQKLLWQLNGRLEYCLKDRMNFDIPEEIKQLQQFQKEDAALTIYEMLQNIFAIFRQDSSSTGWNETIVENLLANVYHQINHLKTVLEEKLEKEDFTRGKLMSSLHLKRYYGRILHYLKAKEYSHCAWTIVRVEILRNFYFINRLTGYLRN heavy: not shown	0.111 µg/mL	0.00014 µg/mL	–	–	–
IFA106 (antibody, human IgG2, kappa) heavy: QVQLVESGGGVVQPGKSLRLSCAASGFTFSSNGIHWVRQAPGKGLEWVAVIWSDGSNKFYADSVKGRFTISRDNSKNTLYLQMNSLRAEDTAVYYCARASGSGSYYNFFDYWGQGTLVTVSSASTKGPSVFPLAPCSRSTSESTAALGCLVKDYFPEPVTVSWNSGALTSGVHTFPAVLQSSGLYSLSSVVTVPSSNFGTQTYTCNVDHKPSNTKVDKTVERKCCVECPPCPAPPVAGPSVFLFPPKPKDTLMISRTPEVTCVVVDVSHEDPEVQFNWYVDGVEVHNAKTKPREEQFNSTFRVVSVLTVVHQDWLNGKEYKCKVSNKGLPAPIEKTISKTKGQPREPQVYTLPPSREEMTKNQVSLTCLVKGFYPSDIAVEWESNGQPENNYKTTPPMLDSDGSFFLYSKLTVDKSRWQQGNVFSCSVMHEALHNHYTQKSLSLSPGPAPASYNLLGFLQRSSNFQCQKLLWQLNGRLEYCLKDRMNFDIPEEIKQLQQFQKEDAALTIYEMLQNIFAIFRQDSSSTGWNETIVENLLANVYHQINHLKTVLEEKLEKEDFTRGKLMSSLHLKRYYGRILHYLKAKEYSHCAWTIVRVEILRNFYFINRLTGYLRN light: not shown	–	–	0.191 µg/mL	0.0103 µg/mL	–
IFA107 (antibody, human IgG2, kappa) heavy: QVQLVESGGGVVQPGKSLRLSCAASGFTFSSNGIHWVRQAPGKGLEWVAVIWSDGSNKFYADSVKGRFTISRDNSKNTLYLQMNSLRAEDTAVYYCARASGSGSYYNFFDYWGQGTLVTVSSASTKGPSVFPLAPCSRSTSESTAALGCLVKDYFPEPVTVSWNSGALTSGVHTFPAVLQSSGLYSLSSVVTVPSSNFGTQTYTCNVDHKPSNTKVDKTVERKCCVECPPCPAPPVAGPSVFLFPPKPKDTLMISRTPEVTCVVVDVSHEDPEVQFNWYVDGVEVHNAKTKPREEQFNSTFRVVSVLTVVHQDWLNGKEYKCKVSNKGLPAPIEKTISKTKGQPREPQVYTLPPSREEMTKNQVSLTCLVKGFYPSDIAVEWESNGQPENNYKTTPPMLDSDGSFFLYSKLTVDKSRWQQGNVFSCSVMHEALHNHYTQKSLSLSPGPAPASYNLLGFLQRSSNFQSQKLLWQLNGRLEYCLKDRMNFDIPEEIKQLQQFQKEDAALTIYEMLQNIFAIFRQDSSSTGWNETIVENLLANVYHQINHLKTVLEEKLEKEDFTRGKLMSSLHLKRYYGRILHYLKAKEYSHCAWTIVRVEILRNFYFINRLTGYLRN light: not shown	–	–	0.142 µg/mL	0.00203 µg/mL	–
IFA20 (antibody, human IgG2, kappa) light: DIQMTQSPSSVSASVGDRVTITCRASQGIYSWLAWYQQKPGKAPNLLIYTASTLQSGVPSRFSGSGSGTDFTLTISSLQPEDFATYYCQQANIFPLTFGGGTKVEIKRTVAAPSVFIFPPSDEQLKSGTASVVCLLNNFYPREAKVQWKVDNALQSGNSQESVTEQDSKDSTYSLSSTLTLSKADYEKHKVYACEVTHQGLSSPVTKSFNRGECAEAAAKEAAAKAAEAAAKEAAAKAMSYNLLGFLQRSSNFQSQKLLWQLNGRLEYCLKDRMNFDIPEEIKQLQQFQKEDAALTIYEMLQNIFAIFRQDSSSTGWNETIVENLLANVYHQINHLKTVLEEKLEKEDFTRGKLMSSLHLKRYYGRILHYLKAKEYSHCAWTIVRVEILRNFYFINRLTGYLRN heavy: not shown	0.182 µg/mL	0.00234 µg/mL	–	–	–
IFA10 (antibody, human IgG2, kappa) heavy: not shown light: DIQMTQSPSSVSASVGDRVTITCRASQGIYSWLAWYQQKPGKAPNLLIYTASTLQSGVPSRFSGSGSGTDFTLTISSLQPEDFATYYCQQANIFPLTFGGGTKVEIKRTVAAPSVFIFPPSDEQLKSGTASVVCLLNNFYPREAKVQWKVDNALQSGNSQESVTEQDSKDSTYSLSSTLTLSKADYEKHKVYACEVTHQGLSSPVTKSFNRGEC	0.0265 µg/mL	0.0045 µg/mL	–	–	–
IFA9 (antibody, human IgG2, kappa) heavy: not shown light: DIQMTQSPSSVSASVGDRVTITCRASQGIYSWLAWYQQKPGKAPNLLIYTASTLQSGVPSRFSGSGSGTDFTLTISSLQPEDFATYYCQQANIFPLTFGGGTKVEIKRTVAAPSVFIFPPSDEQLKSGTASVVCLLNNFYPREAKVQWKVDNALQSGNSQESVTEQDSKDSTYSLSSTLTLSKADYEKHKVYACEVTHQGLSSPVTKSFNRGEC	0.0426 µg/mL	0.0007 µg/mL	–	–	–
IFA8 (antibody, human IgG2, kappa) heavy: not shown light: DIQMTQSPSSVSASVGDRVTITCRASQGIYSWLAWYQQKPGKAPNLLIYTASTLQSGVPSRFSGSGSGTDFTLTISSLQPEDFATYYCQQANIFPLTFGGGTKVEIKRTVAAPSVFIFPPSDEQLKSGTASVVCLLNNFYPREAKVQWKVDNALQSGNSQESVTEQDSKDSTYSLSSTLTLSKADYEKHKVYACEVTHQGLSSPVTKSFNRGEC	0.0397 µg/mL	0.0029 µg/mL	–	–	–
IFA11 (antibody, human IgG2, kappa) heavy: not shown light: DIQMTQSPSSVSASVGDRVTITCRASQGIYSWLAWYQQKPGKAPNLLIYTASTLQSGVPSRFSGSGSGTDFTLTISSLQPEDFATYYCQQANIFPLTFGGGTKVEIKRTVAAPSVFIFPPSDEQLKSGTASVVCLLNNFYPREAKVQWKVDNALQSGNSQESVTEQDSKDSTYSLSSTLTLSKADYEKHKVYACEVTHQGLSSPVTKSFNRGEC	0.0428 µg/mL	0.00178 µg/mL	–	–	–
IFA49 (antibody, human IgG2, kappa) heavy: not shown light: DIQMTQSPSSVSASVGDRVTITCRASQGIYSWLAWYQQKPGKAPNLLIYTASTLQSGVPSRFSGSGSGTDFTLTISSLQPEDFATYYCQQANIFPLTFGGGTKVEIKRTVAAPSVFIFPPSDEQLKSGTASVVCLLNNFYPREAKVQWKVDNALQSGNSQESVTEQDSKDSTYSLSSTLTLSKADYEKHKVYACEVTHQGLSSPVTKSFNRGEC	0.0658 µg/mL	–	–	–	0.0782 µg/mL
